Experimental data as given in patent US20230227838A1, “ENHANCED CELL SURVIVAL AGAINST BIOTIC AND ABIOTIC STRESSES THROUGH SALICYLICK ACID-INDUCED NPR1 CONDENSATES” (priority 2020, published 2023).

target: sim3-GFP (Arabidopsis thaliana) (UniProt P93002); test: sim3-GFP IP, LC-MS/MS
Sequence (P93002 other isoform, or with tags, fused parts or gaps): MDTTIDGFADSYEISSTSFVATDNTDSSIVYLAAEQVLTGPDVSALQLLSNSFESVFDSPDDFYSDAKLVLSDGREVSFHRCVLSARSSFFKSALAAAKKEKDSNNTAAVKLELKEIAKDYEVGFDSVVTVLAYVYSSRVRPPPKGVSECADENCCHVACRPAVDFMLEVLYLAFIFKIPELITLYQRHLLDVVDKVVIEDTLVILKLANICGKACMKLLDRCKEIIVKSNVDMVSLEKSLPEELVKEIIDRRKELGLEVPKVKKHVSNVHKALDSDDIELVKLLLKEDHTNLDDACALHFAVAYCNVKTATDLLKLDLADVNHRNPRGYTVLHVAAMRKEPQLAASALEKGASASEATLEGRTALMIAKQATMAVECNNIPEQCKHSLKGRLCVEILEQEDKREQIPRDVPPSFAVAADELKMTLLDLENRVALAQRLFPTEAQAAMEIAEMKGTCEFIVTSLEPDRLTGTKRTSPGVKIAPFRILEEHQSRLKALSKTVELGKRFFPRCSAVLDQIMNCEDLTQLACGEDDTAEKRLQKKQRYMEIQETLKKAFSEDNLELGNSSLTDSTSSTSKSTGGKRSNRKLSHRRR

Row | Binder | Normalized Fold Change: SA vs Mock [fold]
1 | AtHSBP, HSBP, heat shock factor binding protein (protein, UniProt Q8GW48 1-86, looked up) Heat shock factor-binding protein: MDGHDSEDTKQSTADMTAFVQNLLQQMQTRFQTMSDSIITKIDDMGGRINELEQSINDLRAEMGVEGTPPPASKSGDEPKTPASSS | 6.22
2 | BSL2, BRI1 suppressor 1 (BSU1)-like 2 (protein, UniProt Q9SJF0 1-1018, looked up) Serine/threonine-protein phosphatase BSL2: MDEDSSMVADNDQDREFQSLDGGQSPSPMERETPQQMNDQSPPPEGGSVPTPPPSDPNPATSQQQAAAVVGQEQQPALVVGPRCAPTYSVVDAMMDKKEDGPGPRCGHTLTAVPAVGDEGTPGYIGPRLVLFGGATALEGNSGGTGTPTSAGSAGIRLAGATADVHCYDVLSNKWTRLTPFGEPPTPRAAHVATAVGTMVVIQGGIGPAGLSAEDLHVLDLTQQRPRWHRVVVQGPGPGPRYGHVMALVGQRYLMAIGGNDGKRPLADVWALDTAAKPYEWRKLEPEGEGPPPCMYATASARSDGLLLLCGGRDANSVPLASAYGLAKHRDGRWEWAIAPGVSPSSRYQHAAVFVNARLHVSGGALGGGRMVEDSSSVAVLDTAAGVWCDTKSVVTSPRTGRYSADAAGGDASVELTRRCRHAAAAVGDLIFIYGGLRGGVLLDDLLVAEDLAAAETTYAASHAAAAAATNSPPGRLPGRYGFSDERNRELSESAADGAVVLGSPVAPPVNGDMHTDISPENALLPGTRRTNKGVEYLVEASAAEAEAISATLAAAKARQVNGEVELPDRDCGAEATPSGKPTFSLIKPDSMGSMSVTPAGIRLHHRAVVVAAETGGALGGMVRQLSIDQFENEGRRVSYGTPESATAARKLLDRQMSINSVPKKVIAHLLKPRGWKPPVRRQFFLDCNEIADLCDSAERIFASEPTVLQLKAPIKIFGDLHGQFGDLMRLFDEYGSPSTAGDISYIDYLFLGDYVDRGQHSLETISLLLALKVEYQHNVHLIRGNHEAADINALFGFRIECIERMGERDGIWVWHRINRLFNWLPLAASIEKKIICMHGGIGRSINHVEQIENIQRPITMEAGSIVLMDLLWSDPTENDSVEGLRPNARGPGLVTFGPDRVMEFCNNNDLQLIVRAHECVMDGFERFAQGHLITLFSATNYCGTANNAGAILVLGRDLVVVPKLIHPLPPALSSPETSPERHIEDTWMQELNANRPATPTRGRPQNSNDRGGSLAWM | 2.07
3 | ATCHR12, Homeotic gene regulator (protein, UniProt F4J9M5 1-1102, looked up) Probable ATP-dependent DNA helicase CHR12: MVAQQLQERCGGTSQEDPVETTKSLICALNYISRDLPLPPHLFTAVSSIYHGASSSSLSDSDVSPPLPTSPPANKAPYGADLMGEFEDALLKQRPDCESGSRLIQLLDNRNKSHIQRRLSELEELPSTRGEDLQAKCLLELYGLKLRELQGKVRTAVSSEFWLRLNCADVSSQVFDWGMMRLPRPFYGVGDPFAMEADDQFRKKRDAERLSRLEEEEKNLIETAKRKFFAEVLNAVREFQLQIQATQKRRRQRNDGVQAWHGRQRQRATRAEKLRLMALKSDDQEAYMKLVKESKNERLTTLLEETNKLLANLGAAVQRQKDAKLPEGIDLLKDSESDLSELDAPRSEPLQDLLPDQDIDITESDNNDDSNDLLEGQRQYNSAIHSIQEKVTEQPSLLEGGELRSYQLEGLQWMVSLFNNNLNGILADEMGLGKTIQTISLIAYLLENKGVPGPYLIVAPKAVLPNWVNEFATWVPSIAAFLYDGRLEERKAIREKIAGEGKFNVLITHYDLIMRDKAFLKKIEWYYMIVDEGHRLKNHESALAKTLLTGYRIKRRLLLTGTPIQNSLQELWSLLNFLLPHIFNSVQNFEEWFNAPFADRGNVSLTDEEELLIIHRLHHVIRPFILRRKKDEVEKFLPGKTQVILKCDMSAWQKVYYKQVTDMGRVGLQTGSGKSKSLQNLTMQLRKCCNHPYLFVGGDYNMWKKPEIVRASGKFELLDRLLPKLRKAGHRILLFSQMTRLIDVLEIYLTLNDYKYLRLDGTTKTDQRGLLLKQFNEPDSPYFMFLLSTRAGGLGLNLQTADTVIIFDSDWNPQMDQQAEDRAHRIGQKKEVRVFVLVSVGSVEEVILERAKQKMGIDAKVIQAGLFNTTSTAQDRREMLEEIMRKGTSSLGTDVPSEREINRLAARSEDEFWMFERMDEERRRKENYRARLMQEQEVPEWAYTTQTQEEKLNNGKFHFGSVTGKRKRKEIVYSDTLSELQWLKAVESGEDLSKLSMRYNRREENASNTKTSTSKKVIESIQTVSDGTSEEDEEEQEEERAKEMSGKQRVDKSEEEEEEGEEENDGKAIFKWNTHKKKRSRYSFTCSSSDSRAQSSNGSRRK | 9.34
4 | DMR1, HSK, homoserine kinase (protein, UniProt Q8L7R2 35-370, looked up) Homoserine kinase: CRASVQTLVAVEPEPVFVSVKTFAPATVANLGPGFDFLGCAVDGLGDHVTLRVDPSVRAGEVSISEITGTTTKLSTNPLRNCAGIAAIATMKMLGIRSVGLSLDLHKGLPLGSGLGSSAASAAAAAVAVNEIFGRKLGSDQLVLAGLESEAKVSGYHADNIAPAIMGGFVLIRNYEPLDLKPLRFPSDKDLFFVLVSPDFEAPTKKMRAALPTEIPMVHHVWNSSQAAALVAAVLEGDAVMLGKALSSDKIVEPTRAPLIPGMEAVKKAALEAGAFGCTISGAGPTAVAVIDSEEKGQVIGEKMVEAFWKVGHLKSVASVKKLDNVGARLVNSVSR | 2.16
5 | ATMEK4, ATMKK4, MKK4, mitogen-activated protein kinase kinase 4 (protein, UniProt O80397 1-366, looked up) Mitogen-activated protein kinase kinase 4: MRPIQSPPGVSVPVKSRPRRRPDLTLPLPQRDVSLAVPLPLPPTSGGSGGSSGSAPSSGGSASSTNTNSSIEAKNYSDLVRGNRIGSGAGGTVYKVIHRPSSRLYALKVIYGNHEETVRRQICREIEILRDVNHPNVVKCHEMFDQNGEIQVLLEFMDKGSLEGAHVWKEQQLADLSRQILSGLAYLHSRHIVHRDIKPSNLLINSAKNVKIADFGVSRILAQTMDPCNSSVGTIAYMSPERINTDLNQGKYDGYAGDIWSLGVSILEFYLGRFPFPVSRQGDWASLMCAICMSQPPEAPATASPEFRHFISCCLQREPGKRRSAMQLLQHPFILRASPSQNRSPQNLHQLLPPPRPLSSSSSPTT | 2.62

The next lines start with the values.

Row | Normalized Fold Change: SA vs Mock [fold] | Binder
6 | 18.5 | TAT3, tyrosine aminotransferase 3 (protein, UniProt Q9SK47 1-445, looked up) Probable aminotransferase TAT3: MASNGVTNCNANANVWRFKGNGATSDAAAVTLRKLAFGMFKNCTMNSGKTILFPTPGEPSAHSNFRTCPEAEEAVAAAARSGMANSYAPSPGVFKARRAVAEYLNGELPTKLKAEDVYITGGCNQAIEIVIDSLAGNPSANILLPRPGYPHYDARAVYSGLEIRKYDLLPESDWEINLDGLEAAADENTVAMVIINPNNPCGNVYTYDHLNKVAEMARKLGIMIISDEVYDHVVYGDKPFIPMGKFASIAPVITLGSISKGWVNPGWRVGWIAMNDPNGIFVSTGVVQAIEDFLDLTPQPSFILQEALPDILEKTPKEFFEKKIKAMRRNVELSCERLKDIPCLFCPKKPESCSYLWLKLDTSMLNNIKNDFDFCTKLVSEESLILIPGVALGAENWVRISIGTDESVVQEIFDRLKGFYDRHAISKEAIKLSGHAINQIVVSVN
7 | 17.7 | NIMIN1 (protein, UniProt Q9FNZ5 1-142, looked up) Protein NIM1-INTERACTING 1: MYPKQFSLYNYSLETMSKDENVESKETIRVDKRVREDEEEEEEKKIDTFFKLIKHYQEARKRRREELAENSGVVRRKSNGGERSGIVVPAFQPEDFSQCRTGLKPPLMFVSDHKEENTKVEQEEDQTEERNEDKALDLNLAL
8 | 4.03 | MEK1 (protein, UniProt Q94A06 1-354, looked up) Mitogen-activated protein kinase kinase 1: MNRGSLCPNPICLPPLEQSISKFLTQSGTFKDGDLRVNKDGIQTVSLSEPGAPPPIEPLDNQLSLADLEVIKVIGKGSSGNVQLVKHKLTQQFFALKVIQLNTEESTCRAISQELRINLSSQCPYLVSCYQSFYHNGLVSIILEFMDGGSLADLLKKVGKVPENMLSAICKRVLRGLCYIHHERRIIHRDLKPSNLLINHRGEVKITDFGVSKILTSTSSLANSFVGTYPYMSPERISGSLYSNKSDIWSLGLVLLECATGKFPYTPPEHKKGWSSVYELVDAIVENPPPCAPSNLFSPEFCSFISQCVQKDPRDRKSAKELLEHKFVKMFEDSDTNLSAYFTDAGSLIPPLAN
9 | 4.63 | LURP1, Protein of unknown function (DUF567) (protein, UniProt Q9ZQR8 1-207, looked up) Protein LURP1: MQQPCVIVGSKYCSPNPVGLAIVRKVMKITDGNFVITSADGKLLFKVKDPLFSLHGKRILLDCSGAKVLTLRGKMMTMHDRWQVFRGGSTEEGALLYTVKRSSMIQLAPKLEVFLANNVEEKICDFKVKGAWLDDSCVVYAGDSDTIIAHMCGKQTMRGFFFGKDHFSVTVDKNVDYAFIASLIVILVEIEKAGFITKMTTQMIIGF
